The term koff denotes a measure of how fast the partners let go of each other.

This test concerns the target His-Tagged human CD38 (recombinant) (human, UniProt P28907 1-300). Briefly: SPR. (In general: SPR reads the build-up and loss of mass on a sensor chip optically.)

Starred links: 1 amine or outer side, 2 acyl side, 3 side chain; linkers in the order of their positions; H or OH if unused. Positions of bridges follow the written chain, without caps; N, C: chain ends. Primed or numbered codes have the meaning given here. *: point of attachment. NOTA = O=C(O)CN1CCN(CC(=O)O)CCN(CC(=O)*)CC1; TBMB = c1c(C[*:1])cc(C[*:3])cc1C[*:2]; PEG3′ = not defined here

Turning to {NOTA-PEG3′}-ACVPCADFPIWYC-NH2 (linker 2-5-13 via TBMB (inferred)) [AJ206], the koff was 0.0006 s⁻¹.

For the origin of these results see PMC11040352 (2024).
